Measured values reported in the Immune Epitope Database (IEDB).
Values belong to the sequence of their own block, whether it stands above or below them.

Legend:
[1] = target: HLA-B*35:01; test: IEDB peptide-MHC binding, purified MHC/competitive/radioactivity; filed as Kd, often an IC50 or EC50 that approximates it; ≥ and ≤ were set here for values at or beyond the usual limits of such assays
[2] = target: HLA-B*07:02; test: as above
[3] = target: HLA-B*53:01; test: as above
[4] = target: HLA-B*51:01; test: as above
[5] = target: HLA-B*54:01; test: as above
[6] = target: HLA-A*30:01; test: as above
[7] = target: HLA-B*58:01; test: IEDB peptide-MHC binding, purified MHC/direct/fluorescence; filed as Kd, often an IC50 or EC50 that approximates it; ≥ and ≤ were set here for values at or beyond the usual limits of such assays; conditions: source organism: Burkholderia lata
[8] = target: HLA-B*57:01; test: as above
[9] = target: HLA-A*24:02; test: IEDB peptide-MHC binding, purified MHC/competitive/fluorescence; ≥ and ≤ were set here for values at or beyond the usual limits of such assays
[10] = target: HLA-A*02:01; test: IEDB peptide-MHC binding, purified MHC/competitive/fluorescence; filed as Kd, often an IC50 or EC50 that approximates it; ≥ and ≤ were set here for values at or beyond the usual limits of such assays
[11] = target: HLA-A*02:02; test: IEDB peptide-MHC binding, purified MHC/competitive/radioactivity; filed as Kd, often an IC50 or EC50 that approximates it; ≥ and ≤ were set here for values at or beyond the usual limits of such assays; conditions: source organism: Vaccinia virus WR
[12] = target: HLA-A*02:06; test: as above; conditions: source organism: Vaccinia virus WR
[13] = target: HLA-A*02:03; test: as above; conditions: source organism: Vaccinia virus WR
[14] = target: HLA-A*02:01; test: IEDB peptide-MHC binding, purified MHC/competitive/fluorescence; ≥ and ≤ were set here for values at or beyond the usual limits of such assays
[15] = target: HLA-A*03:01; test: IEDB peptide-MHC binding, purified MHC/direct/fluorescence; filed as Kd, often an IC50 or EC50 that approximates it; ≥ and ≤ were set here for values at or beyond the usual limits of such assays; conditions: source organism: Homo sapiens
[16] = target: HLA-A*11:01; test: as above; conditions: source organism: Homo sapiens
[17] = target: HLA-A*31:01; test: as above; conditions: source organism: Homo sapiens
[18] = target: HLA-A*01:01; test: as above; conditions: source organism: Homo sapiens
[19] = target: HLA-A*69:01; test: as above; conditions: source organism: Homo sapiens
[20] = target: HLA-B*27:05; test: as above; conditions: source organism: Homo sapiens
[21] = target: HLA-A*03:01; test: IEDB peptide-MHC binding, purified MHC/competitive/radioactivity; filed as Kd, often an IC50 or EC50 that approximates it; ≥ and ≤ were set here for values at or beyond the usual limits of such assays
[22] = target: HLA-A*68:01; test: as above; conditions: source organism: Vaccinia virus WR
[23] = target: HLA-A*33:01; test: as above; conditions: source organism: Vaccinia virus WR
[24] = target: HLA-A*11:01; test: as above; conditions: source organism: Vaccinia virus WR
[25] = target: HLA-A*31:01; test: as above; conditions: source organism: Vaccinia virus WR
[26] = source organism: Vaccinia virus WR
[27] = source organism: Mammarenavirus lassaense
[28] = source organism: Dengue virus 2 Jamaica/1409/1983
[29] = source organism: Zaire ebolavirus
[30] = source organism: Human alphaherpesvirus 2
[31] = source organism: Vaccinia virus
[32] = source organism: Dengue virus 4 Philippines/H241/1956
[33] = source organism: Sudan ebolavirus
[34] = source organism: Vaccinia virus Copenhagen
[35] = source organism: Dengue virus 3 Martinique/1243/1999
[36] = source organism: SARS coronavirus Tor2
[37] = source organism: Mammarenavirus brazilense
[38] = source organism: Dengue virus 1 Brazil/97-11/1997
[39] = source organism: Mammarenavirus machupoense
[40] = source organism: Triticum aestivum
[41] = source organism: Mammarenavirus guanaritoense
[42] = source organism: Lassa virus Josiah

Sequence: CPKIFNNNY
Kd [1, 26]: 160 nM
Kd [2, 26]: ≥ 72900 nM
Kd [3, 26]: 331 nM
Kd [4, 26]: ≥ 77500 nM
Kd [5, 26]: 13000 nM

Sequence: CPNCYDSVM
Kd [1, 27]: 7.87 nM
Kd [2, 27]: 205 nM
Kd [3, 27]: 79.5 nM
Kd [4, 27]: 5710 nM
Kd [5, 27]: 4500 nM

Sequence: CTKHSKDFA
Kd [6, 26]: 231 nM

Sequence: DARIYSDPLA
Kd [6, 28]: 744 nM

Sequence: DPEYFDNERI
Kd [1, 26]: ≥ 34800 nM
Kd [2, 26]: ≥ 69600 nM
Kd [3, 26]: 1740 nM
Kd [4, 26]: 3860 nM
Kd [5, 26]: 2260 nM

Sequence: ETLWSPWKL
Kd [7]: 1410 nM
Kd ([8]; source organism: Burkholderia lata): ≥ 20000 nM

Sequence: EWAFWETKK
IC50 [9, 29]: 5980 nM

Sequence: GPHETITAL
Kd [1, 30]: 797 nM
Kd [2, 30]: 1.4 nM
Kd [3, 30]: 3350 nM
Kd [4, 30]: ≥ 77500 nM
Kd [5, 30]: 4850 nM

Kd ([10]; source organism: Escherichia coli 536): 78.2 nM
Sequence: GQLASMVKL

Sequence: HIKTIAVSV
Kd [11]: 3080 nM
Kd [12]: 1550 nM
Kd [6, 26]: 66.8 nM
Kd [13]: 9.6 nM

Sequence: HPFIYVIRHV
Kd [1, 26]: 7040 nM
Kd [2, 26]: 11700 nM
Kd [3, 26]: 2010 nM
Kd [4, 26]: 1020 nM
Kd [5, 26]: 2.71 nM

Sequence: ICQLIIQAF
IC50 [9, 29]: 446 nM

Sequence: IFGNLSPET
IC50 [14, 31]: 47300 nM
IC50 [9, 31]: 14000 nM

Sequence: ISYIMLIFF
Kd ([8]; source organism: Yellow fever virus): 2960 nM

Sequence: ITFLRVLSIP
Kd [6, 32]: 828 nM

Sequence: ITTAVKTVL
IC50 [14, 33]: 55300 nM
IC50 [9, 33]: 37400 nM

Sequence: ITVIDLDPIP
Kd [6, 28]: 295 nM

Sequence: KGRRQYFYG
Kd [6, 26]: 2.85 nM

Sequence: KKKTWLVHK
Kd [6, 32]: 470 nM

Sequence: KLIIDREVV
Kd [10, 26]: 1790 nM
IC50 [9, 34]: ≥ 137000 nM

Sequence: KMRRERAAY
Kd [6, 26]: 3.04 nM

Sequence: KRTLTPQPME
Kd [6, 35]: 15100 nM

Kd [15]: 381 nM
Kd [16]: 40.8 nM
Kd [17]: 8130 nM
Kd [18]: 345 nM
Kd [19]: 1500 nM
Kd [20]: 7470 nM
Sequence: KSDPIMLLK

Sequence: KSRRLNLFS
Kd [6, 26]: 3.28 nM

Sequence: KTSFHIIFL
Kd [6, 26]: 25 nM

Sequence: LGADLDAVI
IC50 [14, 26]: 20500 nM
IC50 [9, 26]: 7660 nM

Sequence: LPFYSNVTGF
Kd [1, 36]: 11.5 nM
Kd [2, 36]: 563 nM
Kd [3, 36]: 79.8 nM
Kd [4, 36]: 861 nM
Kd [5, 36]: 132 nM

Sequence: LPSLEYGANY
Kd [1, 26]: 15.1 nM
Kd [2, 26]: ≥ 45100 nM
Kd [3, 26]: 13.3 nM
Kd [4, 26]: ≥ 69600 nM
Kd [5, 26]: 960 nM

Sequence: LPTSIVVPI
Kd [1, 37]: 6.09 nM
Kd [2, 37]: 124 nM
Kd [3, 37]: 7.51 nM
Kd [4, 37]: 75.8 nM
Kd [5, 37]: 17.7 nM

Sequence: LSRNKKPRI
Kd [6, 38]: 7690 nM

Sequence: LVSIPRTNIV
Kd ([10]; source organism: Variola virus): 279 nM

Sequence: MLNNSLYYM
Kd [1, 39]: 8710 nM
Kd [2, 39]: ≥ 77400 nM
Kd [3, 39]: 9770 nM
Kd [4, 39]: ≥ 36700 nM
Kd [5, 39]: ≥ 36700 nM

Sequence: MPNESRVKQW
Kd [1, 26]: 2290 nM
Kd [2, 26]: 2390 nM
Kd [3, 26]: 30.4 nM
Kd [4, 26]: ≥ 69600 nM
Kd [5, 26]: 5360 nM

Sequence: MSVISNPSK
Kd [6, 26]: 19.7 nM

Sequence: NAICSAVPVD
Kd [6, 38]: 12100 nM

Sequence: NPKASTISWM
Kd [1, 26]: 7660 nM
Kd [2, 26]: 94.7 nM
Kd [3, 26]: 8150 nM
Kd [4, 26]: ≥ 69600 nM
Kd [5, 26]: ≥ 35900 nM

Sequence: NSRSTSLSV
Kd [6, 28]: 14.9 nM

Sequence: PKAENTNTS
IC50 [9, 29]: 61000 nM

Sequence: QDGLICGLR
IC50 [14, 29]: 13300 nM
IC50 [9, 29]: 428 nM

Sequence: QGLIQYPTA
IC50 [14, 29]: 46100 nM
IC50 [9, 29]: 12600 nM

Kd [1, 40]: 66.8 nM
Kd [2, 40]: ≥ 77500 nM
Kd [3, 40]: 7550 nM
Kd [4, 40]: ≥ 43500 nM
Kd [5, 40]: ≥ 78100 nM
Sequence: QPFPSQQPY

Kd [1, 40]: ≥ 23700 nM
Kd [2, 40]: ≥ 77500 nM
Kd [3, 40]: ≥ 36600 nM
Kd [4, 40]: 4830 nM
Kd [5, 40]: 12100 nM
Sequence: QPQEQVPLV

Kd [1, 40]: ≥ 63700 nM
Kd [2, 40]: ≥ 64000 nM
Kd [3, 40]: ≥ 63700 nM
Kd [4, 40]: 14100 nM
Kd [5, 40]: ≥ 63700 nM
Sequence: QPQQLPQFEEI

Sequence: QVHAEQGLI
IC50 [9, 29]: 47000 nM

Sequence: RAKSPTRQS
Kd [6, 26]: 260 nM

Sequence: RCLKPVILK
Kd [21, 38]: 156 nM
Kd [6, 38]: 220 nM

Sequence: RDGVKRLEE
IC50 [9, 29]: ≥ 89800 nM

Sequence: RPNHTIKGSF
Kd [1, 36]: ≥ 69900 nM
Kd [2, 36]: 57.7 nM
Kd [3, 36]: ≥ 69900 nM
Kd [4, 36]: ≥ 69600 nM
Kd [5, 36]: ≥ 69900 nM

Sequence: RPSIGNVFKA
Kd [1, 26]: ≥ 69900 nM
Kd [2, 26]: 3830 nM
Kd [3, 26]: ≥ 36400 nM
Kd [4, 26]: ≥ 69600 nM
Kd [5, 26]: 644 nM

Sequence: RVRNRVSTG
Kd [6, 35]: 115 nM

Sequence: RWGFRSGVP
IC50 [14, 33]: 16400 nM
IC50 [9, 33]: 16700 nM

Sequence: SFFVWVIIL
IC50 [9, 33]: ≥ 72500 nM

Sequence: SINVEYRFL
IC50 [14, 26]: 27200 nM
IC50 [9, 26]: 27700 nM

Sequence: SPMLYQLLEA
Kd [1, 26]: 143 nM
Kd [2, 26]: 94 nM
Kd [3, 26]: 228 nM
Kd [4, 26]: ≥ 69600 nM
Kd [5, 26]: 8.77 nM

Sequence: SPMVIATTDM
Kd [1, 26]: 66.6 nM
Kd [2, 26]: 21.6 nM
Kd [3, 26]: 747 nM
Kd [4, 26]: ≥ 52700 nM
Kd [5, 26]: 1040 nM

Sequence: SPSGVYQCAM
Kd [1, 36]: 26.3 nM
Kd [2, 36]: 6.09 nM
Kd [3, 36]: 748 nM
Kd [4, 36]: 1070 nM
Kd [5, 36]: 2810 nM

Sequence: SPYNSQNAVA
Kd [1, 36]: 8240 nM
Kd [2, 36]: 59.4 nM
Kd [3, 36]: 15900 nM
Kd [4, 36]: 3470 nM
Kd [5, 36]: 1.4 nM

Sequence: STSSSYLYA
Kd [6, 34]: 13.3 nM

Sequence: TFRERYSYK
Kd [22]: 127 nM
Kd [21, 26]: 73.6 nM
Kd [23]: 28.8 nM
Kd [24]: 43.7 nM
Kd [6, 26]: 0.885 nM
Kd [25]: 14.6 nM

Sequence: TPNNFSSIV
Kd [1, 41]: 1810 nM
Kd [2, 41]: 1370 nM
Kd [3, 41]: 7580 nM
Kd [4, 41]: 1250 nM
Kd [5, 41]: 408 nM

Sequence: TPNYMKLLV
Kd [1, 26]: 8.41 nM
Kd [2, 26]: 51.3 nM
Kd [4, 26]: ≥ 77500 nM
Kd [5, 26]: 30.7 nM

Sequence: VPDADPPIPY
Kd [1, 26]: 142 nM
Kd [2, 26]: 2020 nM
Kd [3, 26]: 1650 nM
Kd [4, 26]: ≥ 69600 nM
Kd [5, 26]: 19300 nM

Kd [1, 40]: 16100 nM
Kd [2, 40]: 8750 nM
Kd [3, 40]: 4820 nM
Kd [4, 40]: 5910 nM
Kd [5, 40]: ≥ 69900 nM
Sequence: VPLVQQQQFL

Sequence: VPVLEKKVCA
Kd [1, 26]: 7680 nM
Kd [2, 26]: 3000 nM
Kd [3, 26]: ≥ 26400 nM
Kd [4, 26]: ≥ 29100 nM
Kd [5, 26]: 256 nM

Sequence: WPYIASRTSI
Kd [1, 42]: ≥ 72000 nM
Kd [2, 42]: 55.6 nM
Kd [3, 42]: ≥ 23200 nM
Kd [4, 42]: 45.8 nM
Kd [5, 42]: 714 nM

Sequence: YHKILTAGL
IC50 [9, 29]: 7410 nM

Sequence: YLLEMLWRL
Kd ([10]; source organism: Human herpesvirus 4 strain B95-8): 4.5 nM

Sequence: YLSDSAINI
Kd [10, 34]: 1.3 nM
